Numbered stars: 1 amine (or outer) side, 2 acyl side, 3 side chain; on linkers, the order of the positions; unused ones are H or OH. Bridge positions count the residues as written; N and C are the ends. Square brackets hold non-standard residues; d marks the D form. Side chains are listed from the residue outwards. Ends that are not written are not given here. * marks the point of attachment. C20 diacid = O=C(O)CCCCCCCCCCCCCCCCCCC(=O)*; γGlu = O=C(O)[C@H](CCC(=O)[*:2])N[*:1]
T1: human calcitonin receptor (human, UniProt P30988 25-474)
T1 sequence (looked up): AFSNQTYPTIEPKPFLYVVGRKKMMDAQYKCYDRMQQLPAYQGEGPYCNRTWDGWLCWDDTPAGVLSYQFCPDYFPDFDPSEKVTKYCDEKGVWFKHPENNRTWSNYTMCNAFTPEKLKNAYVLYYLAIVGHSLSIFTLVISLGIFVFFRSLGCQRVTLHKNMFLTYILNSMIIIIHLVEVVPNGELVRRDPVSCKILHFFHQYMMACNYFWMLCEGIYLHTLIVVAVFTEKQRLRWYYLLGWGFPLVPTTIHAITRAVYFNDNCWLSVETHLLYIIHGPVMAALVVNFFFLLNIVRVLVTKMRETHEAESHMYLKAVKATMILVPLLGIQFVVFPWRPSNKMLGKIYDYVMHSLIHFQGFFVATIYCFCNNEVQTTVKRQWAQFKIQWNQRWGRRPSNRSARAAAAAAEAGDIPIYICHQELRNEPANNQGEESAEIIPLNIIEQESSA

B1: N^ε1-[(4S)-4-carboxy-4-(19-carboxynonadecanoylamino)butanoyl]-[Glu14,Arg17,Pro21,Pro27,His35]-h-amylin (peptide)
peptide: K([γGlu-C20 diacid])CNTATCATQRLAEFLRHSSPNFGAIPSSTNVGSHTY-NH2
modifications: disulfide 2-7; N-terminus assumed
SMILES: CC[C@H](C)[C@H](NC(=O)[C@H](C)NC(=O)CNC(=O)[C@H](Cc1ccccc1)NC(=O)[C@H](CC(N)=O)NC(=O)[C@@H]1CCCN1C(=O)[C@H](CO)NC(=O)[C@H](CO)NC(=O)[C@H](Cc1c[nH]cn1)NC(=O)[C@H](CCCNC(=N)N)NC(=O)[C@H](CC(C)C)NC(=O)[C@H](Cc1ccccc1)NC(=O)[C@H](CCC(=O)O)NC(=O)[C@H](C)NC(=O)[C@H](CC(C)C)NC(=O)[C@H](CCCNC(=N)N)NC(=O)[C@H](CCC(N)=O)NC(=O)[C@@H](NC(=O)[C@H](C)NC(=O)[C@@H]1CSSC[C@H](NC(=O)[C@@H](N)CCCCNC(=O)CC[C@H](NC(=O)CCCCCCCCCCCCCCCCCCC(=O)O)C(=O)O)C(=O)N[C@@H](CC(N)=O)C(=O)N[C@@H]([C@@H](C)O)C(=O)N[C@@H](C)C(=O)N[C@@H]([C@@H](C)O)C(=O)N1)[C@@H](C)O)C(=O)N1CCC[C@H]1C(=O)N[C@@H](CO)C(=O)N[C@@H](CO)C(=O)N[C@H](C(=O)N[C@@H](CC(N)=O)C(=O)N[C@H](C(=O)NCC(=O)N[C@@H](CO)C(=O)N[C@@H](Cc1c[nH]cn1)C(=O)N[C@H](C(=O)N[C@@H](Cc1ccc(O)cc1)C(N)=O)[C@@H](C)O)C(C)C)[C@@H](C)O
notes: synthetic peptide amide
B2: N^ε1-[(4S)-4-carboxy-4-(19-carboxynonadecanoylamino)butanoyl]-[Glu14,Arg17,Pro21,Pro27,Pro34,Arg35]-h-amylin (peptide)
peptide: K([γGlu-C20 diacid])CNTATCATQRLAEFLRHSSPNFGAIPSSTNVGPRTY-NH2
modifications: disulfide 2-7; N-terminus assumed
SMILES: CC[C@H](C)[C@H](NC(=O)[C@H](C)NC(=O)CNC(=O)[C@H](Cc1ccccc1)NC(=O)[C@H](CC(N)=O)NC(=O)[C@@H]1CCCN1C(=O)[C@H](CO)NC(=O)[C@H](CO)NC(=O)[C@H](Cc1c[nH]cn1)NC(=O)[C@H](CCCNC(=N)N)NC(=O)[C@H](CC(C)C)NC(=O)[C@H](Cc1ccccc1)NC(=O)[C@H](CCC(=O)O)NC(=O)[C@H](C)NC(=O)[C@H](CC(C)C)NC(=O)[C@H](CCCNC(=N)N)NC(=O)[C@H](CCC(N)=O)NC(=O)[C@@H](NC(=O)[C@H](C)NC(=O)[C@@H]1CSSC[C@H](NC(=O)[C@@H](N)CCCCNC(=O)CC[C@H](NC(=O)CCCCCCCCCCCCCCCCCCC(=O)O)C(=O)O)C(=O)N[C@@H](CC(N)=O)C(=O)N[C@@H]([C@@H](C)O)C(=O)N[C@@H](C)C(=O)N[C@@H]([C@@H](C)O)C(=O)N1)[C@@H](C)O)C(=O)N1CCC[C@H]1C(=O)N[C@@H](CO)C(=O)N[C@@H](CO)C(=O)N[C@H](C(=O)N[C@@H](CC(N)=O)C(=O)N[C@H](C(=O)NCC(=O)N1CCC[C@H]1C(=O)N[C@@H](CCCNC(=N)N)C(=O)N[C@H](C(=O)N[C@@H](Cc1ccc(O)cc1)C(N)=O)[C@@H](C)O)C(C)C)[C@@H](C)O
notes: synthetic peptide amide
B3: N^ε1-[(4S)-4-carboxy-4-[[(4S)-4-carboxy-4-(19-carboxynonadecanoylamino)butanoyl]amino]butanoyl]-[Arg17,Pro21,Pro27,Pro31,Pro34,Arg35]-h-amylin (peptide)
peptide: K([γGlu-γGlu-C20 diacid])CNTATCATQRLANFLRHSSPNFGAIPSSTPVGPRTY-NH2
modifications: disulfide 2-7; N-terminus assumed
SMILES: CC[C@H](C)[C@H](NC(=O)[C@H](C)NC(=O)CNC(=O)[C@H](Cc1ccccc1)NC(=O)[C@H](CC(N)=O)NC(=O)[C@@H]1CCCN1C(=O)[C@H](CO)NC(=O)[C@H](CO)NC(=O)[C@H](Cc1c[nH]cn1)NC(=O)[C@H](CCCNC(=N)N)NC(=O)[C@H](CC(C)C)NC(=O)[C@H](Cc1ccccc1)NC(=O)[C@H](CC(N)=O)NC(=O)[C@H](C)NC(=O)[C@H](CC(C)C)NC(=O)[C@H](CCCNC(=N)N)NC(=O)[C@H](CCC(N)=O)NC(=O)[C@@H](NC(=O)[C@H](C)NC(=O)[C@@H]1CSSC[C@H](NC(=O)[C@@H](N)CCCCNC(=O)CC[C@H](NC(=O)CC[C@H](NC(=O)CCCCCCCCCCCCCCCCCCC(=O)O)C(=O)O)C(=O)O)C(=O)N[C@@H](CC(N)=O)C(=O)N[C@@H]([C@@H](C)O)C(=O)N[C@@H](C)C(=O)N[C@@H]([C@@H](C)O)C(=O)N1)[C@@H](C)O)C(=O)N1CCC[C@H]1C(=O)N[C@@H](CO)C(=O)N[C@@H](CO)C(=O)N[C@H](C(=O)N1CCC[C@H]1C(=O)N[C@H](C(=O)NCC(=O)N1CCC[C@H]1C(=O)N[C@@H](CCCNC(=N)N)C(=O)N[C@H](C(=O)N[C@@H](Cc1ccc(O)cc1)C(N)=O)[C@@H](C)O)C(C)C)[C@@H](C)O
notes: synthetic peptide amide
B4: N^ε1-[(4S)-4-carboxy-4-[[(4S)-4-carboxy-4-(19-carboxynonadecanoylamino)butanoyl]amino]butanoyl]-[Asp14,Arg17,Pro21,Pro27,Pro34,Arg35]-h-amylin (peptide)
peptide: K([γGlu-γGlu-C20 diacid])CNTATCATQRLADFLRHSSPNFGAIPSSTNVGPRTY-NH2
modifications: disulfide 2-7
notes: synthetic peptide amide; also called compound 130
B5: N^ε1-[(4S)-4-carboxy-4-[[(4S)-4-carboxy-4-(19-carboxynonadecanoylamino)butanoyl]amino]butanoyl]-[D-Asp14,Arg17,Pro21,Pro27,Arg35]-h-amylin (peptide)
peptide: K([γGlu-γGlu-C20 diacid])CNTATCATQRLA[dD]FLRHSSPNFGAIPSSTNVGSRTY-NH2
modifications: disulfide 2-7; N-terminus assumed
SMILES: CC[C@H](C)[C@H](NC(=O)[C@H](C)NC(=O)CNC(=O)[C@H](Cc1ccccc1)NC(=O)[C@H](CC(N)=O)NC(=O)[C@@H]1CCCN1C(=O)[C@H](CO)NC(=O)[C@H](CO)NC(=O)[C@H](Cc1c[nH]cn1)NC(=O)[C@H](CCCNC(=N)N)NC(=O)[C@H](CC(C)C)NC(=O)[C@H](Cc1ccccc1)NC(=O)[C@@H](CC(=O)O)NC(=O)[C@H](C)NC(=O)[C@H](CC(C)C)NC(=O)[C@H](CCCNC(=N)N)NC(=O)[C@H](CCC(N)=O)NC(=O)[C@@H](NC(=O)[C@H](C)NC(=O)[C@@H]1CSSC[C@H](NC(=O)[C@@H](N)CCCCNC(=O)CC[C@H](NC(=O)CC[C@H](NC(=O)CCCCCCCCCCCCCCCCCCC(=O)O)C(=O)O)C(=O)O)C(=O)N[C@@H](CC(N)=O)C(=O)N[C@@H]([C@@H](C)O)C(=O)N[C@@H](C)C(=O)N[C@@H]([C@@H](C)O)C(=O)N1)[C@@H](C)O)C(=O)N1CCC[C@H]1C(=O)N[C@@H](CO)C(=O)N[C@@H](CO)C(=O)N[C@H](C(=O)N[C@@H](CC(N)=O)C(=O)N[C@H](C(=O)NCC(=O)N[C@@H](CO)C(=O)N[C@@H](CCCNC(=N)N)C(=O)N[C@H](C(=O)N[C@@H](Cc1ccc(O)cc1)C(N)=O)[C@@H](C)O)C(C)C)[C@@H](C)O
notes: synthetic peptide amide
B6: N^ε1-[(4S)-4-carboxy-4-[[(4S)-4-carboxy-4-(19-carboxynonadecanoylamino)butanoyl]amino]butanoyl]-[Glu14,Arg17,Pro21,Pro27,Arg34,Glu35]-h-amylin (peptide)
peptide: K([γGlu-γGlu-C20 diacid])CNTATCATQRLAEFLRHSSPNFGAIPSSTNVGRETY-NH2
modifications: disulfide 2-7; N-terminus assumed
SMILES: CC[C@H](C)[C@H](NC(=O)[C@H](C)NC(=O)CNC(=O)[C@H](Cc1ccccc1)NC(=O)[C@H](CC(N)=O)NC(=O)[C@@H]1CCCN1C(=O)[C@H](CO)NC(=O)[C@H](CO)NC(=O)[C@H](Cc1c[nH]cn1)NC(=O)[C@H](CCCNC(=N)N)NC(=O)[C@H](CC(C)C)NC(=O)[C@H](Cc1ccccc1)NC(=O)[C@H](CCC(=O)O)NC(=O)[C@H](C)NC(=O)[C@H](CC(C)C)NC(=O)[C@H](CCCNC(=N)N)NC(=O)[C@H](CCC(N)=O)NC(=O)[C@@H](NC(=O)[C@H](C)NC(=O)[C@@H]1CSSC[C@H](NC(=O)[C@@H](N)CCCCNC(=O)CC[C@H](NC(=O)CC[C@H](NC(=O)CCCCCCCCCCCCCCCCCCC(=O)O)C(=O)O)C(=O)O)C(=O)N[C@@H](CC(N)=O)C(=O)N[C@@H]([C@@H](C)O)C(=O)N[C@@H](C)C(=O)N[C@@H]([C@@H](C)O)C(=O)N1)[C@@H](C)O)C(=O)N1CCC[C@H]1C(=O)N[C@@H](CO)C(=O)N[C@@H](CO)C(=O)N[C@H](C(=O)N[C@@H](CC(N)=O)C(=O)N[C@H](C(=O)NCC(=O)N[C@@H](CCCNC(=N)N)C(=O)N[C@@H](CCC(=O)O)C(=O)N[C@H](C(=O)N[C@@H](Cc1ccc(O)cc1)C(N)=O)[C@@H](C)O)C(C)C)[C@@H](C)O
notes: synthetic peptide amide
B7: N^ε1-[(4S)-4-carboxy-4-[[(4S)-4-carboxy-4-(19-carboxynonadecanoylamino)butanoyl]amino]butanoyl]-[Glu14,Arg17,Pro21,Pro27,His34,Glu35]-h-amylin (peptide)
peptide: K([γGlu-γGlu-C20 diacid])CNTATCATQRLAEFLRHSSPNFGAIPSSTNVGHETY-NH2
modifications: disulfide 2-7; N-terminus assumed
SMILES: CC[C@H](C)[C@H](NC(=O)[C@H](C)NC(=O)CNC(=O)[C@H](Cc1ccccc1)NC(=O)[C@H](CC(N)=O)NC(=O)[C@@H]1CCCN1C(=O)[C@H](CO)NC(=O)[C@H](CO)NC(=O)[C@H](Cc1c[nH]cn1)NC(=O)[C@H](CCCNC(=N)N)NC(=O)[C@H](CC(C)C)NC(=O)[C@H](Cc1ccccc1)NC(=O)[C@H](CCC(=O)O)NC(=O)[C@H](C)NC(=O)[C@H](CC(C)C)NC(=O)[C@H](CCCNC(=N)N)NC(=O)[C@H](CCC(N)=O)NC(=O)[C@@H](NC(=O)[C@H](C)NC(=O)[C@@H]1CSSC[C@H](NC(=O)[C@@H](N)CCCCNC(=O)CC[C@H](NC(=O)CC[C@H](NC(=O)CCCCCCCCCCCCCCCCCCC(=O)O)C(=O)O)C(=O)O)C(=O)N[C@@H](CC(N)=O)C(=O)N[C@@H]([C@@H](C)O)C(=O)N[C@@H](C)C(=O)N[C@@H]([C@@H](C)O)C(=O)N1)[C@@H](C)O)C(=O)N1CCC[C@H]1C(=O)N[C@@H](CO)C(=O)N[C@@H](CO)C(=O)N[C@H](C(=O)N[C@@H](CC(N)=O)C(=O)N[C@H](C(=O)NCC(=O)N[C@@H](Cc1c[nH]cn1)C(=O)N[C@@H](CCC(=O)O)C(=O)N[C@H](C(=O)N[C@@H](Cc1ccc(O)cc1)C(N)=O)[C@@H](C)O)C(C)C)[C@@H](C)O
notes: synthetic peptide amide

These binders were tested against T1, human calcitonin receptor (assay: cell-based or functional assay).

Binder	hCTR funct. EC50 (pM)
B1	5580 pM
B2	6380 pM
K([γGlu-C20 diacid])CNTATCATQRLAEFLRHSSPNFGAIPSSTNVGPHTY-NH2 (disulfide 2-7, synthetic peptide amide)	1450 pM
B3	8660 pM
B4	7280 pM
K([γGlu-γGlu-C20 diacid])CNTATCATQRLADFLRHSSPNFGAIPSSTNVGPETY-NH2 (disulfide 2-7, synthetic peptide amide)	843 pM
B5	100000 pM
B6	7430 pM
B7	7050 pM
